Article doi:10.1101/2023.12.07.570558 (bioRxiv, 2023)

T1: His-tagged SIRT1 (bacterially expressed) (human, UniProt Q96EB6)
T1 sequence: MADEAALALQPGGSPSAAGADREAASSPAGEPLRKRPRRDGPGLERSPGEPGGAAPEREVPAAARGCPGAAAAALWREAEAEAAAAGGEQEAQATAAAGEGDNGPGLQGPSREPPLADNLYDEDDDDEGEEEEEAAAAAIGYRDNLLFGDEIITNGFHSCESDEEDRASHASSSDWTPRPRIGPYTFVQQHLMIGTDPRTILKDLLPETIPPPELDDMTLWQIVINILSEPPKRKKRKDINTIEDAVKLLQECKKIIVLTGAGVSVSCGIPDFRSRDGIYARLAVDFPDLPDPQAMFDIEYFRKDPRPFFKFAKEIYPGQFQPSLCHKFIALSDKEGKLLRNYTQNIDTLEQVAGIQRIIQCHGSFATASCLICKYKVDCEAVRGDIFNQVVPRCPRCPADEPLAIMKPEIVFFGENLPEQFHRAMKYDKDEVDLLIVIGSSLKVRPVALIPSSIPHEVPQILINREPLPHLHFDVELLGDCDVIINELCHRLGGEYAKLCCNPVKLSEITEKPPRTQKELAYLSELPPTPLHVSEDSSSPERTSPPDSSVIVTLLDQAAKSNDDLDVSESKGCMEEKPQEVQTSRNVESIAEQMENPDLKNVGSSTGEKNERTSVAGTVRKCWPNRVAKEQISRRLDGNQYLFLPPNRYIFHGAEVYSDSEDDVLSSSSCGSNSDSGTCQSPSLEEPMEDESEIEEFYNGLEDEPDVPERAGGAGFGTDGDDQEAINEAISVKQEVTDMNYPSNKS


Biological target: T1, His-tagged SIRT1 (bacterially expressed)
Assay: SEC

Binder | binding result
His-tagged TULP3 (bacterially expressed) (natural protein) MEASRCRLSPSGDSVFHEEMMKMRQAKLDYQRLLLEKRQRKKRLEPFMVQPNPEARLRRAKPRASDEQTPLVNCHTPHSNVILHGIDGPAAVLKPDEVHAPSVSSSVVEEDAENTVDTASKPGLQERLQKHDISESVNFDEETDGISQSACLERPNSASSQNSTDTGTSGSATAAQPADNLLGDIDDLEDFVYSPAPQGVTVRCRIIRDKRGMDRGLFPTYYMYLEKEENQKIFLLAARKRKKSKTANYLISIDPVDLSREGESYVGKLRSNLMGTKFTVYDRGICPMKGRGLVGAAHTRQELAAISYETNVLGFKGPRKMSVIIPGMTLNHKQIPYQPQNNHDSLLSRWQNRTMENLVELHNKAPVWNSDTQSYVLNFRGRVTQASVKNFQIVHKNDPDYIVMQFGRVADDVFTLDYNYPLCAVQAFGIGLSSFDSKLACE | binds
His-tagged TULP3-4G (natural protein) MEASRCRLSPSGDSVFHEEMMKMRQAKLDYQRLLLEKRQRKKRLEPFMVQPNPEARLRRAKPRASDEQTPLVNCHTPHSNVILHGIDGPAAVLKPDEVHAPSVSSSVVEEDAENTVDTASKPGLQERLQKHDISESVNFDEETDGISQSACLERPNSASSQNSTDTGTSGSATAAQPADNLLGDIDDLEDFVGSGAPQGVTVRCRIIRDKRGMDRGLFPTYYMYLEKEENQKIFLLAARKRKKSKTANYLISIDPVDLSREGESYVGKLRSNLMGTKFTVYDRGICPMKGRGLVGAAHTRQELAAISYETNVLGFKGPRKMSVIIPGMTLNHGQIGYQPQNNHDSLLSRWQNRTMENLVELHNKAPVWNSDTQSYVLNFRGRVTQASVKNFQIVHKNDPDYIVMQFGRVADDVFTLDYNYPLCAVQAFGIGLSSFDSKLACE | binds
